# Test results reported in patent US20110117017A1, “PEPTIDES WITH PROPERTIES OF AN […] FOR THE ALPHA 1A […] RECEPTOR AND USES THEREOF” (priority 2006, published 2011).
# T1: alpha1a adrenergic receptor (Homo sapiens, UniProt P35348)
# T1 sequence (P35348 1-466): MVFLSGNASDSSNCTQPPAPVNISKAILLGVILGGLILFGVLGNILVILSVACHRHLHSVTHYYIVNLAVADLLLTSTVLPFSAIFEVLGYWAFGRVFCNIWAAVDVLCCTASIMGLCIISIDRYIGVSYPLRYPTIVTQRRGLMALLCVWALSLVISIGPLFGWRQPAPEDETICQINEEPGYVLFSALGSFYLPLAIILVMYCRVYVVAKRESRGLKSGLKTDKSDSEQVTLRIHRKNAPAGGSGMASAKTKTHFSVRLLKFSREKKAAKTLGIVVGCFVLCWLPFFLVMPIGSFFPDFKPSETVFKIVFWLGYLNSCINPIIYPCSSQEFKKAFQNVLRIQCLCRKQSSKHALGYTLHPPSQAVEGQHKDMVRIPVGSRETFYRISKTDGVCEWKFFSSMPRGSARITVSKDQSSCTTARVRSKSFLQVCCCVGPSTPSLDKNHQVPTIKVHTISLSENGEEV
# B1: ^125I-AdTx1: radiolabeled (iodinated) AdTx1 peptide (peptide)
# peptide: LTCVTSKSIFGITTEDCPDGQNLCFKRRHYVVPKIYDSTRGCAATCPIPENYDSIHCCKTDKCNE
# modifications: also: radioiodinated (125I), place not given here
# Molecular target: T1, alpha1a adrenergic receptor
# Assay: hot saturation of 125I-AdTx1 on yeast membranes expressing the alpha1a adrenergic receptor
# Details: read-out: high-affinity specific binding (saturation) to the alpha1a adrenergic receptor; 20 μg yeast membranes, 20 h
molecule,measurement,value
B1,Kd,800 ± 200 pM
